From patent publication US20170233495A1 (CALYPSO BIOTECH, published 2017)

Assays:
[1] = biological target: T1, neutrophil-derived human NGAL/MMP9 complex (human, UniProt P80188 21-198); experiment: cell-based or functional assay
[2] = biological target: neutrophil-derived human dimeric MMP9 (human, UniProt P14780 20-707); experiment: cell-based or functional assay
[3] = biological target: T2, neutrophil-derived human monomeric MMP9 (human, UniProt P14780 20-707); experiment: cell-based or functional assay
[4] = biological target: T3, recombinant human proMMP9 (full length, latent form) (human, UniProt P14780 20-707); experiment: cell-based or functional assay
[5] = biological target: MMP3-activated recombinant human MMP9 (human, UniProt P14780 107-707); experiment: SPR (BIAcore), antibody captured by anti-human Fc, antigen titrated 4.7-150 nM
Procedure: (§1) In a second step, pro-MMP9 or MMP3-activated MMP9 were titrated from 4.7 to 150 nM in 2-fold dilutions.

[6] = biological target: T3, recombinant human proMMP9 (full length, …); experiment: as above
Procedure: as §1

[7] = biological target: T1, neutrophil-derived human NGAL/MMP9 …; experiment: cell-based or functional assay; remark: listed apart in the source
[8] = biological target: T2, neutrophil-derived human monomeric MMP9; experiment: cell-based or functional assay; remark: listed apart in the source

T2 sequence (P14780 20-707): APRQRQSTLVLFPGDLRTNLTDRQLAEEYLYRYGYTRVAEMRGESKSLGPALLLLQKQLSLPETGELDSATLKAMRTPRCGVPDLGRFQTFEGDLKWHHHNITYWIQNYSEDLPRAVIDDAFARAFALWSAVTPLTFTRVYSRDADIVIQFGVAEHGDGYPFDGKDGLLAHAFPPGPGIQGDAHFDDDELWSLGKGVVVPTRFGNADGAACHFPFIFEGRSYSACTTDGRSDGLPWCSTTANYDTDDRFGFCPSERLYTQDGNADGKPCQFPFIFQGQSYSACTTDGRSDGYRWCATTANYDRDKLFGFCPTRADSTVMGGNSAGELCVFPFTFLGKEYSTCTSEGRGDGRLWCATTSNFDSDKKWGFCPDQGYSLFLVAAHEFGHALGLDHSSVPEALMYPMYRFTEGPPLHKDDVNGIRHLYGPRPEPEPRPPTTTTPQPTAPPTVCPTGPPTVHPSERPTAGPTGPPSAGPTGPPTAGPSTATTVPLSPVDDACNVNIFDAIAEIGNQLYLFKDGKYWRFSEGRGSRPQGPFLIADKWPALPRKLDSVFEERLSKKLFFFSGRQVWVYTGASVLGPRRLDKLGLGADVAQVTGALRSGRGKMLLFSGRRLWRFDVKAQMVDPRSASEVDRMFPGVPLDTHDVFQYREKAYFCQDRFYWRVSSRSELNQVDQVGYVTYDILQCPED
T3 sequence (P14780 20-707): as above
T1 sequence (chain, as listed by the source limits assumed, chain 1 of 2): as the sequence (P14780 20-707) above
T1 sequence (P80188 21-198 limits assumed, chain 2 of 2): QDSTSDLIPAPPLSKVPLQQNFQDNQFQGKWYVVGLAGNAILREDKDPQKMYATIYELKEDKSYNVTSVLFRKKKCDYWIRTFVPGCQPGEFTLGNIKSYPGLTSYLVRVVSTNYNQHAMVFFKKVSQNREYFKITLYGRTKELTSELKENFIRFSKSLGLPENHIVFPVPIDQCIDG
Chain of neutrophil-derived human dimeric MMP9 (P14780 20-707): as the sequence (P14780 20-707) above
Chain of MMP3-activated recombinant human MMP9 (P14780 107-707): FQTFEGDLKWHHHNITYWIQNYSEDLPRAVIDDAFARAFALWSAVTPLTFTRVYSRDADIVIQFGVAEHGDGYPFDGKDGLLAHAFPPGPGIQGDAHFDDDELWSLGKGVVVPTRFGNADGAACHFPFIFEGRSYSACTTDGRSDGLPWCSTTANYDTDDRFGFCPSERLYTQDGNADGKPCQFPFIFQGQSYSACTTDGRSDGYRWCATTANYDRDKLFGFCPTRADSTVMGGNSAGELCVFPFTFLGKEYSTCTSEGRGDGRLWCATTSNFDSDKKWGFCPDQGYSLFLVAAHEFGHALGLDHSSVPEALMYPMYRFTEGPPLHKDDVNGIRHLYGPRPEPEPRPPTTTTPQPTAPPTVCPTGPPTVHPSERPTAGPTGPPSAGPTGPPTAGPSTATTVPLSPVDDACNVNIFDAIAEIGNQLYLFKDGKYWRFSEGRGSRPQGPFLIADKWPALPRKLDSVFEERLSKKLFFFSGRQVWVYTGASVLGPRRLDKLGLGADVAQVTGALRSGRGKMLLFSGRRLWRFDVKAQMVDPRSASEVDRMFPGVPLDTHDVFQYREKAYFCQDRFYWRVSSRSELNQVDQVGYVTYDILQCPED

B1: comparative antibody 1 (antibody known as AB0041) (antibody, human IgG4 S228P, kappa, V domains shown)
VH: QVQLKESGPGLVAPSQSLSITCTVSGFSLLSYGVHWVRQPPGKGLEWLGVIWTGGTTNYNSALMSRLSISKDDSKSQVFLKMNSLQTDDTAIYYCARYYYGMDYWGQGTSVTVSS
VL: DIVMTQSHKFMSTSVGDRVSITCKASQDVRNTVAWYQQKTGQSPKLLIYSSSYRNTGVPDRFTGSGSGTDFTFTISSVQAEDLAVYFCQQHYITPYTFGGGTKLEIKR
notes: also called anti-MMP9 comparative antibody 1
In the case of B1, the “efficacy of inhibition, MMP3/MMP9 assay with neutrophil-derived MMP9” value (“efficacy of inhibition, MMP3/MMP9 assay” for short) [1] is reported as 25%, the “efficacy of inhibition, MMP3/MMP9 assay” value [2] is reported as 25% and the “efficacy of inhibition, MMP3/MMP9 assay” value [3] is reported as 25%. The “IC50, DQ-gelatin digestion, MMP3/MMP9 assay” value [4] was 0.2 nM, the Kd [5] was 5 nM and the Kd [6] was 0.9 nM. The “IC50 (read off the curve)” value [7] was about 1 nM and the “IC50 (read off the curve)” value [8] was about 1 nM.
